From a protein production outcome set (Wang et al. 2014)

Experiment: label from the status in PepcDB records
For “MRDHVEIGIGREARRTYSLDDISVVSSRRTRSSKDVDTTWHIDAYKFDLPFMNHPSDALASPEFVIEMGKQGGLGVINAEGLWGRHADLDEAIAKVIAAYEEGDQAAATRTLQELHAAPLDTELLSERIAQVRDSGEIVAVRVSPQNVREIAPIVIKAGADLLVIQGTLISAEHVNTGGEALNLKEFIGSLDVPVIAGGVNDYTTALHMMRTGAVGIIVGGGENTNSLALGMEVSMATAIADVAAARRDYLDETGGRYVHIIADGSIENSGDVVKAIACGADAVVLGSPLARAEEAAGKGYFWPAVAAHPRFPRGVVTESVDLDEAAPSLEQILHGPSTMPWGVENFEGGLKRALAKCGYTDLKSFQKVSLHVN”, the protein production was “not failed”.
For “MRDIPLLIPILLILFVSLGLARVKTILVVGAFSLFFVYGYLKGENIGTPRRRIEVNDDVFSVMLILSVIIILIQIANLRGIPLLHPHLRTHLNPKLTGLTYFLGLPSSVYLIIRGKKLGFLYPLMVALYAYRTPVLVALIALTLPYLEDMKKGKKAVEIGVIGIFLLFLISYFRGSLSFLTRIQGTTSVLDVIVKRCSVVGFYKGELQLAGVKSYIFGGLGPRTMIARYLGIPGVTITATLIGGMYLDFGLLSSLEMLLLGFYYGIMKKLRSDVGRSFYYSTLSYGIVGVETGILDLPVYLMILVGLLIAWREFDGNLRKDIRRIISWISSSSNNW”, the protein production was “failed”.
With “MREEQVSDCGSITLEEWNGSSSTKLFKTATITASSSLSIQRSANRFNHVWRRVLQAFVPEASGFPGSVTPDYVGFQLWDTLQGLSTYTKMMLSTQALLSAIGVGEKSATVIGATFQWFLRDFTGMLGGILFTFYQGSNLDSNAKMWRLVADLMNDIAGVASGATRAALTQHFALQDNAADISAKEGSQETMATMMGMSLGMLLARFTSGNPMAIWLSFLSLTVFHMYVLSPEQVSSMEGVLPLWATSLRSTNSKPLHKRVQLGVRVSSLPRLDMLQLLNGVGASSYKNAKYLLAHIKGNVSVILHKDSKPADVLKSYIHAIVLANLMEKSTSFYSEGEAWIDKHYDELLHKVRLNH” the protein production was “failed”.
For “MREHLKLFSLIFSYPDEDKLGKAIALAEGIGLTEIAQTLKQVDIEALQVEYTSLFISSHPSVPCPPYQSYFEEGSVYGKASLRAAELYSKYGLNYVYESEPPDHISVELEFLSMNPELLSDFRDWFLEFAKCVEEKSEIYATFARAFRKFLEKPSKVQS”, the protein production was “not failed”.
In the case of “MRENIIEFIPKEKPCSYLKEERSLFRYFHIEECSSDLYQALLERGWRRFGKYFFVPICKNCKACLSVRKPLANLEFSRSFKRVLSKNRQTGLVIQRPMITEAHLKLYDRYHRRMSEKKGWEYSPITMESYYEMFVEGSGEFGYEFAYYRDERLVGIALVDILERSLSAVYCFYDHDYSDFSLGIFSILKQLELAKRLKIDYFYPGYWIKNHPSMGYKERFAPYEILRNEPDIDALPEWSLQGENE”, the protein production is reported as “failed”.
In the case of “MREQLRAHGIGPNDIHTLLLSHFHADHIAGLRDFPRARILASEPGWRAVRGLSGLAAVRQAFLPGLLPPDMESRLSFVEAFALQALPADLAPFSHGRDVSGCGEVFVVDLPGHAAGHLGAFVLGDAGWTLLASDAAWSEEGYREMRGPSELSFLVQHSRRSYYDTLARLHALHRGGRVDILLTHQEETPCLEHHHHHH”, the protein production is reported as “failed”.
For “MRERFDVVIAGAGPAGAQCARDLAERNYEVLVLESEPEDGFPRQSNKSTAGTFMSAMTGFAIPDDVVMNYTDNVVLESPNDHYVRNQTGAVLEFAEFKQWLVSEGRDKGATYRFDSRVSAPIMENGEIVGVRYDGDEEVYADIVIDATGPAAPLAKELDVCNLQRNHQAIGVEYEFEGVEVDHDDYADLRDAMMLRLDHDLAPGGYSWIFHTGEDTAKVGLCYIQNGSHQKYAKDGMGIDDYLEYWLDSDPRFDDAERIEGTQAHRGSAHIQPPDSMSTDNFMAIGDTVPTVDPLWGEGIHKGMKSARAAAATADSALKPDEPDTSAENLSVYDQLWHSEVAPKHNARLMMTELLYLAPNERYDQLMDDLRSTGQDTLRQINGGDRRAIAKLTHLSDMPILVEYARRRLDILEHHHHHH”, the protein production was “failed”.
In the case of “MRERKKYGKHIPKSLSSKINKRKLIQKNICTNYKTIKIIDIYENLPYNQLNNGRTKIKEIILANDVLVVLLISGISRAYNMINGEFLCEINPNNFSVVHTIVYNSYNNTLIIAYASFPAHLQCKVIDCNDLKHGITNSSKLGILFGT”, the protein production is reported as “failed”.
With “MREVKLVTFDVWNTLLDLNIMLDEFSHQLAKISGLHIKDVANAVIEVRNEIKKMRAQASEDPRKVLTGSQEALAGKLKVDVELVKRATARAILNVDESLVLEGTKEALQFVKERGLKTAVIGNVMFWPGSYTRLLLERFGLMEFIDKTFFADEVLSYKPRKEMFEKVLNSFEVKPEESLHIGDTYAEDYQGARKVGMWAVWINQEGDKVRKLEERGFEIPSIANLKDVIELISKT” the protein production was “not failed”.
For “MRFDKSCQARAPSAPDGPGVLRFTIFRGEAKKRKAAVSVAGRFCAVACFLRLGSAGLSRCPCYFSPMLERRIVVAVPARDEGAGVVATLRALAAQEGAPPFQTLLLVNNSRDDTAAQARAFARQMPGFRLQVEEVALPPREANVVGARRAALDWAAALAGSDGIIVSTDADTQAAPDWLAALVQPLCANRAVQASAGRILLRATERAALPEPVRRTYLLDTGYRDAASRLRARVLPDPFDPAPRHWQHFGASLALRVSAYRAVGGVPQVPCLEDLALVRALARADLPLRHTPRARVYTSARLCGRVPVGLSTQLGEWARGPQHWRVPGGAEVLRLAQAEAALRRSWQARRLAPKLTAQWLTSEAALGAALHAPRWGLALERAHEVREAEGRWQRTFAPIPVWDALQEVRALLSTLPEERPLTAEVCAP”, the protein production was “failed”.
With “MRFFYFSGEIMEKILVIRNDKLGDFMQAWPAFAMLKASNPKLKLTALVPSYTASLAEICPFIDHVIIDSKKNDKTDFKRLVQEIKAQQFDGMISFFSNTHNGKLAWKSGIKYRLAPATKWVQILYNHRLTQRRSRSEKSEAEYNQDLVRTFLQKHNMPVVEPKPPYLIFEKSAVENQRVFLQENLGLSANKKWIFVHSGSGGSATNLSLAQYADLIKGLLAEFDCNVVLTAGPGESEKAYELANLVNDLRVAIYDKNKGLVDFAHSLACADLFIAGSTGPLHLSSAFNIPTIGFYPNSRSSQPRRWKPINDVDKHIAFCPPAGKESQMNLELISIDNALAEISLFIRNMWQTSNNI” the protein production was “failed”.
In the case of “MRFGPVALSAAKGALLAHSRKAPGWTLAKGTRLGDEDLALLAGLGVAEVVVARLDPGDVHEDEAAARVAAVLLGPGLTLGDAFTGRANLFAGGDGLLRLDAARFDRLNALCEGLTVATLPPFAKVAPRQMVATVKIIPFALPETVIAQAEALLAGAPALEVALFRPMRLALIQTHLPETAGKMLDKTASVTAGRMAALGGGLTVDRRCPHDTRALAACLSAVSAEKDVDLIAVAGASAIVDRGDVIPAAITRAGGRVDHLGMPVDPGNLILLGELAGRVVLGLPGCARSPAINGFDWVLDRLCAGLAVGGADLMAMGVGGLLKDTTARTQPRMAAVTHPSPAAPPRLGALVLAAGLSRRMGGVNKLLLDWRGKPLVAHAVDTVLAAGPAAVAVVIGHQGKAVRAALEGRAIALVENPDPGRGLGSSLKRGLAALPADLDGVIVCLGDMPGLTPRLLSRLIAAFAPLEGRAICLPTFGGRRGNPVLFAARFLPEMMEITGDIGARPVIAAHPDQTCEVAMDALAEGASVLMDVDTPEAAKALLSAGGLEHHHHHH”, the protein production is reported as “failed”.
With “MRFHFFPQPLDRAAWSVFLVALVLTLLLVWGGDRTQAQVREFSWQNRDVGASDRAFILSFNRLMDWSSVATHLRIEPALEGKASWSGRRFAYTLTQPIPYGQTFKVSLEDAVSVPQGKPIKPFQGQFRSRDRVLVYLGSGAEEGRLILYNLTLQQKIFLTPPNLRVFDFQPYPAGDRILFSAGERGEQMGFDPQLYIVTTGLYFNAPDTPRRQAHPAGEISLILDNSEYQNLRFQLANDGSKIVVQRVNRLQPADSSLWLLDENFQPRRLNQAAAGEFRIAPDNQHLIIAQGQGLAIVPLEATNGESNFDFLPQYGMVLDFSRDGRQVAAVKFNPNFSRSLYVVDIFGEHREVLTINGSIIAGQFDPSGQFLYVILTRIEGEGNYREVPYLALLDLKTKELFKLKDFDPQQELYLSLAPDGRTLAIDAVEGREIPAEVDHGDLYSETAPVTPSPRDLVELPPAPPGSPLPPRQLPAQEHQIWLLPLKLDQDKIVVGMPEPLAPGLQARWLP” the protein production was “failed”.
In the case of “MRFPFCTGGKTFVLWDVEVCPIPDGLGPHDVFSNIKRVLMDNGYRGDVSTTPYTDLTKSNGEFNGIPVRHLSAGDRDARLEVYMIDLYSCVVKEDGPLNLMLFVGDISSRSKDFFRVFRLLQSSSSDSSVPLSLTQDGICKALTFGEEVIIRECGERRKVPNSD”, the protein production is reported as “not failed”.
